Experimental data reported in patent US20250171562A1 (ALK ABELL, published 2025).

Target: T1, recombinant human IgE (human, UniProt P01854-1 1-428)
T1 construct: made in-house (ALK); preloaded on immobilised FcεRIα in the displacement ELISA
Test: IgE-FcεRIα displacement ELISA
Outline: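 Streptavidin-coated plates carried site-specifically biotinylated recombinant human FcεRIα, loaded with recombinant human IgE at 13 ng/ml. sdAbs in a pM–μM series were added for 1 h, and displaced IgE was washed off. Percent displacement was the signal reduction versus the no-sdAb control, giving EC50 and maximal effect.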

T1 sequence (P01854 other isoform, or with tags, fused parts or gaps): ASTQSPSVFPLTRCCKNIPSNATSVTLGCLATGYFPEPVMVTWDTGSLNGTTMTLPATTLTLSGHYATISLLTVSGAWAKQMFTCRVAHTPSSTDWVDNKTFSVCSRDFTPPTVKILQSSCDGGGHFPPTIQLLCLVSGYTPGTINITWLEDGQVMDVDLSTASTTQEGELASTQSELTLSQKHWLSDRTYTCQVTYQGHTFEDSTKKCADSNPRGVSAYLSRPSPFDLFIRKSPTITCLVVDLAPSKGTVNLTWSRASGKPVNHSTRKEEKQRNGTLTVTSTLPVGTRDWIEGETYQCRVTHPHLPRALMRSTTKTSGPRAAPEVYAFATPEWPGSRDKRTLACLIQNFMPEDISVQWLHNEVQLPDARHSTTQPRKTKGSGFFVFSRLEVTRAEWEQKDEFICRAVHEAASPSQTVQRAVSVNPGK

Row | EC50 | Max effect | Binder
1 | 4.8 nM | > 95% | CIgG4D2A1(G4S)3 (Fc fusion) chain 1: GPPCPPCPAPEFLGGPSVFLFPPKPKDTLMISRTPEVTCVVVDVSQEDPEVQFNWYVDGVEVHNAKTKPREEQFNSTYRVVSVLTVLHQDWLNGKEYKCKVSNKGLPSSIEKTISKAKGQPREPQVYTLPPCQEEMTKNQVSLWCLVKGFYPSDIAVEWESNGQPENNYKTTPPVLDSDGSFFLYSRLTVDKSRWQEGNVFSCSVMHEALHNHYTQKSLSLSLGKGGGGSGGGGSGGGGSDVQLQESGGGLVEAGGSLRLSCVASGRTFSGWSMGWFRQAPGKEREFVAAISWVGSWIGGTVYSNSVKGRFTISRDNARTTVYLQMNSLKPEDTAVYFCAAANSETPRIFASEYDYWGQGTQVTVS chain 2: GPPCPPCPAPEFLGGPSVFLFPPKPKDTLMISRTPEVTCVVVDVSQEDPEVQFNWYVDGVEVHNAKTKPREEQFNSTYRVVSVLTVLHQDWLNGKEYKCKVSNKGLPSSIEKTISKAKGQPREPQVCTLPPSQEEMTKNQVSLSCAVKGFYPSDIAVEWESNGQPENNYKTTPPVLDSDGSFFLVSRLTVDKSRWQEGNVFSCSVMHEALHNHYTQKSLSLSLGKGGGGSGGGGSGGGGSEVQLLESGGGLVQPGGSLRLSCAASGFTFGNYDMAWVRQAPGKRPEWVSSIDTGGDITHYADSVKGRFTISRDNAKNTLYLQMNSLRPEDTAVYWCATDEEYALGPNEFDYYGQGTLVTVSS
2 | – | > 95% | NIgG4E1A1(G4S)3 (Fc fusion) chain 1: DVQLQESGGGLVQAGGSLRLSCLASGRTFTTTSGYNMGWFRQAPGKEREFVAGIKWVSGSNRAYAESVKGRFTISRDNAKNTVYLQMNSLKPEDTAVYYCAAATGQSYVPIREYEYVYWGQGTQVTVSGGGGSGGGGSGGGGSGPPCPPCPAPEFLGGPSVFLFPPKPKDTLMISRTPEVTCVVVDVSQEDPEVQFNWYVDGVEVHNAKTKPREEQFNSTYRVVSVLTVLHQDWLNGKEYKCKVSNKGLPSSIEKTISKAKGQPREPQVYTLPPCQEEMTKNQVSLWCLVKGFYPSDIAVEWESNGQPENNYKTTPPVLDSDGSFFLYSRLTVDKSRWQEGNVFSCSVMHEALHNHYTQKSLSLSLGK chain 2: EVQLLESGGGLVQPGGSLRLSCAASGFTFGNYDMAWVRQAPGKRPEWVSSIDTGGDITHYADSVKGRFTISRDNAKNTLYLQMNSLRPEDTAVYWCATDEEYALGPNEFDYYGQGTLVTVSSGGGGSGGGGSGGGGSGPPCPPCPAPEFLGGPSVFLFPPKPKDTLMISRTPEVTCVVVDVSQEDPEVQFNWYVDGVEVHNAKTKPREEQFNSTYRVVSVLTVLHQDWLNGKEYKCKVSNKGLPSSIEKTISKAKGQPREPQVCTLPPSQEEMTKNQVSLSCAVKGFYPSDIAVEWESNGQPENNYKTTPPVLDSDGSFFLVSRLTVDKSRWQEGNVFSCSVMHEALHNHYTQKSLSLSLGK
3 | – | > 95% | NIgG4E1A1(RS) (Fc fusion) chain 1: DVQLQESGGGLVQAGGSLRLSCLASGRTFTTTSGYNMGWFRQAPGKEREFVAGIKWVSGSNRAYAESVKGRFTISRDNAKNTVYLQMNSLKPEDTAVYYCAAATGQSYVPIREYEYVYWGQGTQVTVSRSGPPCPPCPAPEFLGGPSVFLFPPKPKDTLMISRTPEVTCVVVDVSQEDPEVQFNWYVDGVEVHNAKTKPREEQFNSTYRVVSVLTVLHQDWLNGKEYKCKVSNKGLPSSIEKTISKAKGQPREPQVYTLPPCQEEMTKNQVSLWCLVKGFYPSDIAVEWESNGQPENNYKTTPPVLDSDGSFFLYSRLTVDKSRWQEGNVFSCSVMHEALHNHYTQKSLSLSLGK chain 2: EVQLLESGGGLVQPGGSLRLSCAASGFTFGNYDMAWVRQAPGKRPEWVSSIDTGGDITHYADSVKGRFTISRDNAKNTLYLQMNSLRPEDTAVYWCATDEEYALGPNEFDYYGQGTLVTVSSRSGPPCPPCPAPEFLGGPSVFLFPPKPKDTLMISRTPEVTCVVVDVSQEDPEVQFNWYVDGVEVHNAKTKPREEQFNSTYRVVSVLTVLHQDWLNGKEYKCKVSNKGLPSSIEKTISKAKGQPREPQVCTLPPSQEEMTKNQVSLSCAVKGFYPSDIAVEWESNGQPENNYKTTPPVLDSDGSFFLVSRLTVDKSRWQEGNVFSCSVMHEALHNHYTQKSLSLSLGK
4 | 7 nM | > 95% | CIgG4D2A1(G4S)2 (Fc fusion) chain 1: GPPCPPCPAPEFLGGPSVFLFPPKPKDTLMISRTPEVTCVVVDVSQEDPEVQFNWYVDGVEVHNAKTKPREEQFNSTYRVVSVLTVLHQDWLNGKEYKCKVSNKGLPSSIEKTISKAKGQPREPQVYTLPPCQEEMTKNQVSLWCLVKGFYPSDIAVEWESNGQPENNYKTTPPVLDSDGSFFLYSRLTVDKSRWQEGNVFSCSVMHEALHNHYTQKSLSLSLGKGGGGSGGGGSDVQLQESGGGLVEAGGSLRLSCVASGRTFSGWSMGWFRQAPGKEREFVAAISWVGSWIGGTVYSNSVKGRFTISRDNARTTVYLQMNSLKPEDTAVYFCAAANSETPRIFASEYDYWGQGTQVTVS chain 2: GPPCPPCPAPEFLGGPSVFLFPPKPKDTLMISRTPEVTCVVVDVSQEDPEVQFNWYVDGVEVHNAKTKPREEQFNSTYRVVSVLTVLHQDWLNGKEYKCKVSNKGLPSSIEKTISKAKGQPREPQVCTLPPSQEEMTKNQVSLSCAVKGFYPSDIAVEWESNGQPENNYKTTPPVLDSDGSFFLVSRLTVDKSRWQEGNVFSCSVMHEALHNHYTQKSLSLSLGKGGGGSGGGGSEVQLLESGGGLVQPGGSLRLSCAASGFTFGNYDMAWVRQAPGKRPEWVSSIDTGGDITHYADSVKGRFTISRDNAKNTLYLQMNSLRPEDTAVYWCATDEEYALGPNEFDYYGQGTLVTVSS
5 | – | > 95% | NIgG4E1A1(G4S)2 (Fc fusion) chain 1: DVQLQESGGGLVQAGGSLRLSCLASGRTFTTTSGYNMGWFRQAPGKEREFVAGIKWVSGSNRAYAESVKGRFTISRDNAKNTVYLQMNSLKPEDTAVYYCAAATGQSYVPIREYEYVYWGQGTQVTVSGGGGSGGGGSGPPCPPCPAPEFLGGPSVFLFPPKPKDTLMISRTPEVTCVVVDVSQEDPEVQFNWYVDGVEVHNAKTKPREEQFNSTYRVVSVLTVLHQDWLNGKEYKCKVSNKGLPSSIEKTISKAKGQPREPQVYTLPPCQEEMTKNQVSLWCLVKGFYPSDIAVEWESNGQPENNYKTTPPVLDSDGSFFLYSRLTVDKSRWQEGNVFSCSVMHEALHNHYTQKSLSLSLGK chain 2: EVQLLESGGGLVQPGGSLRLSCAASGFTFGNYDMAWVRQAPGKRPEWVSSIDTGGDITHYADSVKGRFTISRDNAKNTLYLQMNSLRPEDTAVYWCATDEEYALGPNEFDYYGQGTLVTVSSGGGGSGGGGSGPPCPPCPAPEFLGGPSVFLFPPKPKDTLMISRTPEVTCVVVDVSQEDPEVQFNWYVDGVEVHNAKTKPREEQFNSTYRVVSVLTVLHQDWLNGKEYKCKVSNKGLPSSIEKTISKAKGQPREPQVCTLPPSQEEMTKNQVSLSCAVKGFYPSDIAVEWESNGQPENNYKTTPPVLDSDGSFFLVSRLTVDKSRWQEGNVFSCSVMHEALHNHYTQKSLSLSLGK
6 | – | > 95% | NIgG4E1A1(G4S)1 (Fc fusion) chain 1: DVQLQESGGGLVQAGGSLRLSCLASGRTFTTTSGYNMGWFRQAPGKEREFVAGIKWVSGSNRAYAESVKGRFTISRDNAKNTVYLQMNSLKPEDTAVYYCAAATGQSYVPIREYEYVYWGQGTQVTVSGGGGSGPPCPPCPAPEFLGGPSVFLFPPKPKDTLMISRTPEVTCVVVDVSQEDPEVQFNWYVDGVEVHNAKTKPREEQFNSTYRVVSVLTVLHQDWLNGKEYKCKVSNKGLPSSIEKTISKAKGQPREPQVYTLPPCQEEMTKNQVSLWCLVKGFYPSDIAVEWESNGQPENNYKTTPPVLDSDGSFFLYSRLTVDKSRWQEGNVFSCSVMHEALHNHYTQKSLSLSLGK chain 2: EVQLLESGGGLVQPGGSLRLSCAASGFTFGNYDMAWVRQAPGKRPEWVSSIDTGGDITHYADSVKGRFTISRDNAKNTLYLQMNSLRPEDTAVYWCATDEEYALGPNEFDYYGQGTLVTVSSGGGGSGPPCPPCPAPEFLGGPSVFLFPPKPKDTLMISRTPEVTCVVVDVSQEDPEVQFNWYVDGVEVHNAKTKPREEQFNSTYRVVSVLTVLHQDWLNGKEYKCKVSNKGLPSSIEKTISKAKGQPREPQVCTLPPSQEEMTKNQVSLSCAVKGFYPSDIAVEWESNGQPENNYKTTPPVLDSDGSFFLVSRLTVDKSRWQEGNVFSCSVMHEALHNHYTQKSLSLSLGK
